Here are results for 32 sequences from the supplement of paper PMC9170038.

The data set has as its system MS2 coat protein. Nature of the data set: apparent KD of MS2 coat protein; designed switch direction (-1 OFF switch, 1 ON switch): -1; higher = weaker reporter binding. An outline of the steps:
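Apparent KD, taken as the median over clusters for each design, was obtained by curve-fitting normalised cluster fluorescence. Designed RNA switches had been transcribed on Illumina chips by stalled E. coli RNA polymerase and titrated with SNAP-549-labelled MS2 coat protein, doubling from 0.7 or 1.5 nM to 3 µM.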

Where [1] appears, read: input ligand: microRNA oligo, concentration not stated.
[2] abbreviates: Eterna round: R95, input ligand: FMN 200 uM.
Where [3] appears, read: Eterna round: R95, input ligand: microRNA oligo, concentration not stated.
[4] abbreviates: Eterna round: R95, input ligand: none.

On to “UUUCGGCAUGUAGGAUAUGGAUCCGAUUAGGAUUUAGAAGGACAUGAGGAUCACCCAUGUGCAUUUAAUUAGUCAUUACCGUUU [EXclNG1-LROPPY07] (Eterna round: R96, puzzle: Exclusion NG 1)”, for which the “apparent KD of MS2 coat protein” value runs as follows: (input ligand: FMN 200 uM) 79.9 nM; under setting [1], 42.8 nM; (input ligand: none) 67.1 nM.

Regarding “UUUUUGUAUGAAGGAUAUACUUAACAUGAGGAUCACCCAUGUGGUGUUGUGAGUGAGUGAGUUUAGUAGAAGGUCAAUUAUUUU [JMF's solution 24] (Eterna round: R96, puzzle: Exclusion NG 2)”, the “apparent KD of MS2 coat protein” value is, setting by setting: (input ligand: FMN 200 uM) 843 nM; under setting [1], 346 nM; (input ligand: none) 361 nM.

Turning to “GAAGAAGAGAGAAUAGAAAACAUGAGGAUCACCCAUGUUAAGAGAUGAGGGUGUAAUAGGAUUUUUGCUCGUCUUAU (puzzle: Sensor v3, turn-off variant 1)”, the “apparent KD of MS2 coat protein” value was 38.3 nM under setting [2], 54 nM under setting [3] and 40.5 nM under setting [4].

With “AAACCACAUGAGGAUCACCCAUGUGAGGAUAUGAUACUAUGUACUUCGGUACAUAGUAUCAGAAGGCAUAUGAA [Ex1-3: 48] (puzzle: Exclusion 1)”, the “apparent KD of MS2 coat protein” value under setting [3] is 24.4 nM.

Consider “GAGCUAUGAGGAUAUGCAUAUAUACGGUUUCGUGUGGUACUACAUGAGGAUCACCCAUGUAGAAGGCGUGGCUG [JL-ex2-2.05 mat747 mod] (puzzle: Exclusion 2)”, for which, under setting [3], the “apparent KD of MS2 coat protein” value was 14.2 nM.

Take “UAUUAACAAGCUAGAUCCUACAUGAGGAUCACCCAUGUGCUCGUCUUAUAAGGUACUGUGACGAAAGUCACGGUACC [Sensor 3, v1 - 76] (puzzle: Sensor v3, turn-off variant 1)”: the “apparent KD of MS2 coat protein” value reads like this: under setting [2], 265 nM; under setting [3], 42.4 nM; under setting [4], 243 nM.

As to “UGCUACAUGAGGAUCACCCAUGUUAUUUGGGAUUUUUUAGGACAGGAUAUGAUUGUAUUGUUUUUUCAGAAGGGUCAUUACUUU [JR_ExcNG3_Sub013] (Eterna round: R96, puzzle: Exclusion NG 3)”, the “apparent KD of MS2 coat protein” value runs as follows: (input ligand: FMN 200 uM) 368 nM; under setting [1], 316 nM; (input ligand: none) 347 nM.

As for “CUGAGGUAGCGGUCCUAUGACAUGAGGAUCACCCAUGUGCCUUGCUACAAGCUUUUUGCUCGUCUUAUGAUUCUCGG [JL Atriat mod 9] (puzzle: Sensor v3, turn-off variant 1)”, the “apparent KD of MS2 coat protein” value reads like this: under setting [2], 47.8 nM; under setting [3], 107 nM; under setting [4], 51.9 nM.

On to “GUCGAGUGAGGAUAUGGUGAGUAGUGCCUGAGCGCUGCUCACCAGAAGGCACAUGAGGAUCACCCAUGUAUGUC [JL-ex4-2.04 denovo] (puzzle: Exclusion 4)”, for which, under setting [3], the “apparent KD of MS2 coat protein” value turned out to be 12.3 nM.

As to “AACUCACAUGAGGAUCACCCAUGUGAGGAUAUGAUACUAUGUACUUCGGUACAUAGUAUCAGAAGGCAUGUGGA [Ex1-3: 90] (puzzle: Exclusion 1)”, under setting [3], the “apparent KD of MS2 coat protein” value is 12.9 nM.

Regarding “AUAAAGUGAGGAUAUAUAAGACACGGUGAUACACCGUGAAAAUAGAAGGUACAUGAGGAUCACCCAUGUUGGGC [Mod of Anonveat 19 - Jieux - Exclusion 4] (Eterna round: R97, puzzle: Exclusion 4)”, the “apparent KD of MS2 coat protein” value runs as follows: (input ligand: FMN 200 uM) 50.2 nM; (input ligand: none) 53.7 nM.

On to “UUUUAACAUGAGGAUCACCCAUGUGAGGAUAUCGAAAUUUAUAUUAAUAUUUUUAAAACGAGAAGGCACAUUUU [JMF 67] (puzzle: Exclusion 1)”, for which, under setting [3], the “apparent KD of MS2 coat protein” value was found to be 53.5 nM.

On to “UCUCGCGGGCAAGGAUAUCCUACGUUGUUCUGGCCCGUGCAUGUUACAUGAGGAUCACCCAUGUGGGAGAAGGUGCGCCAGGGC [Design 37] (Eterna round: R96, puzzle: Exclusion NG 2)”, for which the “apparent KD of MS2 coat protein” value by setting is: (input ligand: FMN 200 uM) 51.3 nM; under setting [1], 36.7 nM; (input ligand: none) 59.8 nM.

On to “AUCAUGUAAGGAUAUCUUACAUGUGACUUCGGUCACUGUUCAGAGAAGGUACAUGAGGAUCACCCAUGUAGAAC [Ex4-3: 45] (puzzle: Exclusion 4)”, for which the “apparent KD of MS2 coat protein” value under setting [3] turned out to be 18.5 nM.

For “GUGUUGCGAGGAUAUAUAAGGAAAUGUUCUUAGGAUAUGGAACAUGAGGAUCACCCAUGUAGAAGGUGCAUAUC [JR_Ex2_Sub048] (Eterna round: R97, puzzle: Exclusion 2)”, the “apparent KD of MS2 coat protein” value reads like this: (input ligand: FMN 200 uM) 48.1 nM; (input ligand: none) 38.7 nM.

For “GAUUAUGCGAGCUUUAGGGACAUGAGGAUCACCCAUGUUCGUCUUAUUGGUCUAGGUGCACUGACAUACCUAAAUCU [JMF 91] (puzzle: Sensor v3, turn-off variant 1)”, the “apparent KD of MS2 coat protein” value reads like this: under setting [2], 20.3 nM; under setting [3], 34.9 nM; under setting [4], 20.5 nM.

Turning to “UUUAAUUUUUUUUUUUUACAAGCUUUUUGCUCGUCUUAUACAUGAGGAUCACCCAUGUGGGUGAGAGAUAAAUUAUC [JMF 14] (puzzle: Sensor v3, turn-off variant 2)”, the “apparent KD of MS2 coat protein” value under setting [2] came out at 53.2 nM, the “apparent KD of MS2 coat protein” value under setting [3] was 17 nM and the “apparent KD of MS2 coat protein” value under setting [4] amounted to 64.2 nM.

Consider “CAACUGCAUGUGAGGAUAUGCACCGGCCAAGCCGGGCAGAAGGCACAUGAGGAUCACCCAUGUCAUCCUAUUGC [Esusgeraon] (puzzle: Brourd's mod of Exclusion 4)”, for which, under setting [3], the “apparent KD of MS2 coat protein” value stood at 12.4 nM.

On to “CAUGUCCAACGAGGAUAUGGGAAAGGAAGUGUACCAGAAGGCGUACGGACAUGAGGAUCACCCAUGUCGCGCGGUGCGAUGUGG [MOD2 Nando EXNG 1.1] (Eterna round: R96, puzzle: Exclusion NG 1)”, for which the “apparent KD of MS2 coat protein” value (input ligand: FMN 200 uM) was determined as 112 nM, the “apparent KD of MS2 coat protein” value under setting [1] is 39.1 nM and the “apparent KD of MS2 coat protein” value (input ligand: none) turned out to be 98.9 nM.

As for “GUGUACAGAGGAUAUACUUGAAUCUAGCGAAGCUAGGUUCGACAUGAGGAUCACCCAUGUAGAAGGCUGUACAC [Dot plot directed A v2] (puzzle: Exclusion 2)”, under setting [3], the “apparent KD of MS2 coat protein” value is 12.4 nM.

As for “AGAUGGCGAGGAUAUACAUGAGGAUCACCCAUGUGAGAGAAGAAAGUGAGGAAGAAAAGUAGAAGGCGCUGUCA [Mat - Exclusion 3 - Mod of Salish D11] (puzzle: Exclusion 3)”, the “apparent KD of MS2 coat protein” value runs as follows: under setting [2], 184 nM; under setting [3], 54.4 nM; under setting [4], 60 nM.

Consider “CCGCUAAUAGGAUAUACAUGAGGAUCACCCAUGUCACUCUUCAUUGGUGUCUCUUCAAGUAGAAGGGUUGCUCA [Atisdi] (puzzle: Exclusion 3)”, for which, under setting [3], the “apparent KD of MS2 coat protein” value stood at 28.4 nM.

As for “GACUAGUGAGGAUAUAUUUGCAGUGUACCUCGGGUGAUCGCACUUGAGGAUCACCCAAGUAGAAGGCGCGAGGG [EX2 #25] (Eterna round: R97, puzzle: Exclusion 2)”, the “apparent KD of MS2 coat protein” value (input ligand: FMN 200 uM) was found to be 47.7 nM and the “apparent KD of MS2 coat protein” value (input ligand: none) is 355 nM.

For the sequence “ACGUGAUAUCUGUCGGUGGACAUGAGGAUCACCCAUGUAAGCUUUUUGCUUGUCUUAUAACCCGGUGACAGACCUUC [Inxeer] (Eterna round: R96, puzzle: Sensor v3, turn-off variant 1)”, the “apparent KD of MS2 coat protein” value came to 35.5 nM (input ligand: FMN 200 uM), 349 nM under setting [1] and 35.1 nM (input ligand: none).

With “GGUCAAGAGCAGAUCCGCGCUGCCAUUGACCGCUCAUUUACAUGAGGAUCACCCAUGUUUUUUGCUCGUCUUACUAC [Inedsoinin] (puzzle: Sensor v3, turn-off variant 2)”, the “apparent KD of MS2 coat protein” value by setting is: under setting [2], 18.2 nM; under setting [3], 57.9 nM; under setting [4], 20.3 nM.

As for “GCAGCAACUCUCACUAACUAAACAUGAGGAUCACCCAUGUCUCAGGAUAUGGUCUGGAUUACAGGCCAGAAGGGAGAAAGCUGC [Eli exng3 - 040] (Eterna round: R96, puzzle: Exclusion NG 3)”, the “apparent KD of MS2 coat protein” value is, setting by setting: (input ligand: FMN 200 uM) 9.73 nM; under setting [1], 10.6 nM; (input ligand: none) 13.1 nM.

As to “CGGUUGUGAGGAUAUACAUGAGGAUCACCCAUGUCCAUCCUUUCGGUAACGAUAGAACGUAGAAGGCGCACCGU [Eternabot (L2) Solution 55] (Eterna round: R97, puzzle: Exclusion 3)”, the “apparent KD of MS2 coat protein” value (input ligand: FMN 200 uM) is 24.4 nM and the “apparent KD of MS2 coat protein” value (input ligand: none) stood at 16 nM.

Consider “AGAUGGAAGCAGGAUAUGCUUGUAUAAUUGAAAGCAGAAGGGCUAACAUGAGGAUCACCCAUGUAAGAGGUGUA [JR_E6_Sub059] (puzzle: Exclusion 6)”, for which the “apparent KD of MS2 coat protein” value by setting is: under setting [2], 302 nM; under setting [3], 282 nM; under setting [4], 352 nM.

As for “UUUUAACAUGAGGAUCACCCAUGUGAGGAUAUCGAAAUUUAUAUUAAUAUUUAUUUUACGAGAAGGCACAUUUU [JMF 66] (puzzle: Exclusion 1)”, the “apparent KD of MS2 coat protein” value under setting [3] stood at 104 nM.

Take “GAAAAGGUAGGAUAUACGAAAAGAAAGGGUAGAAAGAAAACACAUGAGGAUCACCCAUGUAGAAGGACCAAAAG [salish99_ex2_r3_095] (puzzle: Exclusion 2)”: the “apparent KD of MS2 coat protein” value stood at 37.3 nM under setting [2], 14.6 nM under setting [3] and 26.8 nM under setting [4].

As to “GUUAUGUUAGGAUAUGCUUAUGGUGGGUGCUCAGACAUGAUGCAGAAGGGACAUGAGGAUCACCCAUGUACUGU [EX4 #19] (Eterna round: R97, puzzle: Exclusion 4)”, the “apparent KD of MS2 coat protein” value is, setting by setting: (input ligand: FMN 200 uM) 777 nM; (input ligand: none) 991 nM.

Take “AGAGAAAAUCUAGGAUAUGUGUAUGCCGCGUGCGCAGAAGGAGACAUGAGGAUCACCCAUGUAAAGAGACAGAAGACGACCAAA [Matt's Exclusion] (Eterna round: R96, puzzle: Exclusion NG 1)”: the “apparent KD of MS2 coat protein” value by setting is: (input ligand: FMN 200 uM) 55.7 nM; under setting [1], 38.7 nM; (input ligand: none) 67.5 nM.
